Measurements: the nanobody polyreactivity screen of Harvey et al. (2022)

Test: yeast display, Sf9 membrane polyspecificity reagent, FACS + sequencing; frameworks hold sequencing errors
Summary of the method: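 Galactose-induced (36–48 hours) yeast carrying a synthetic nanobody display library were exposed to 10% biotinylated, detergent-solubilized Sf9 membrane reagent at 4 °C for 1 hour. FACS followed streptavidin microbead enrichment, using low and high (top ~1%) gates for expression (anti-HA) and reagent binding (streptavidin). Colony PCR, MiSeq 2 × 250 sequencing and CDR-length filtering followed. Labels for polyreactivity reflect the gate of origin.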
With “QVQLVESGGGLVQAGGSLRLSCAASGRTIRVYAMGWYRQAPGKERELVARINFRGGSTRYADSVKGRFTISRDNAKNTVYLQMNSLKPEDTAVYYCAARPSSFYYSNGFDYWGQGTQVTVSS” the “polyreactivity (PSR sort gate)” value was “high polyreactivity”.
In the case of “QVQLVESGGGLVQAAGSLRLSCAASGSIFYNYAMGWYRQAPGKERELVAAITSGGITYYADSVKGRFTISRDNAKNTVYLQMNSLKPEYTAVYYCAAESLTGYGHYDYWGQGTQVTVSS”, the “polyreactivity (PSR sort gate)” value is reported as “low polyreactivity”.
For “QVQLVESGGGLVQAGGSLRLSCAASGSTIKTYATMGWYRQAPGKERELVSAITSGSSTNYADSVKGRFTISRDNAKNNVYLQMNSLKPEATAVYYCAADDYYNWYLGEPGDYWGQGTQVTVSS”, the “polyreactivity (PSR sort gate)” value was “low polyreactivity”.
For “QVQLVESGGGLVQAGGSLRLSCAASGRTFSYYAMGLYRQAPGKEREFVAAITWRGSSTYYADSVKGRFTISRDNAKNTVYLQMNSLKPEDTAVYYCNARATNVIWGRYDYWGQGTQVTVSS”, the “polyreactivity (PSR sort gate)” value was “high polyreactivity”.
For “QVQLVESGGGLVQAGGSLRLSCAASGRIFDGYAMGWYRQAPGKEWELVASISDDGGSTYYADSVKGRFTISRDNEQNTVYLQLNSLKPDDTAVYYCAAVYRRRSYSFYYWGHGTQVTVSS”, the “polyreactivity (PSR sort gate)” value was “high polyreactivity”.
For “QVQRVESGGGLVQAGGILRLSCAASGSTFREYTMGWYRQAPGKEKELVAAITNSGGSTYYADSVKGRFTISRDNEKNTVYLQMNSLKPEDTAVYYCAADVGIVDYDYWGQGTQVTVSS”, the “polyreactivity (PSR sort gate)” value was “low polyreactivity”.
For “QVHLVESGGGLVQAGGSLRLSCAASGGNFRPNAMGWYRQAPGKERELVASITRGGSTNYADSVKGRFTISRDNAKNTVYLQMNSLKPEDTAVYYCSALLRYTRTLYYSWGQGTQVTVSS”, the “polyreactivity (PSR sort gate)” value was “high polyreactivity”.
In the case of “QVQLVESGGGLVQAGGSLRLSCAASGLSFTFGYAMGWYRQAPGKERELVASISSSGGNTYYADSVKGRFTISRDNAKNTVYLQMNSLKPEDTAVYYCAVYSHRRNMNYWGQGTQVTVSS”, the “polyreactivity (PSR sort gate)” value is reported as “high polyreactivity”.
In the case of “QVQLVESGGGLVQAGGSLRLSCAASGSTFYYNAMGWYSQAPGKERELVAAISSDGSTNYADSVKGRFTISRDNAKNTVNLQMNSLKPEDTAVYYCAKKDFYFAPSPGYYRSRDYWGQGTQVTVSS”, the “polyreactivity (PSR sort gate)” value is reported as “low polyreactivity”.
With “QVQLVESGGGLVQAGGSLRLSCAASGSTFRYYSMGWYRQAPGKERELVAAITYRGGRTYYADSVKGRFTISRDNAKNTDYLQKNSLKPEDTAVYYCAAKSGRHSMDSSGQGTQVTVSS” the “polyreactivity (PSR sort gate)” value was “low polyreactivity”.
For “QVQLVESGAGLVHAGGSLRLSCASSGRTFAKYAMGWYRQAPGKERELVAAISGRSGSTYYADSVKGRFTISRDNPKNTVYLQMNSLKPEDTAVYYCAASGGSRYDWVQGTQVTVSS”, the “polyreactivity (PSR sort gate)” value was “high polyreactivity”.
For “QVQLEDSGGGLVQAGGSLRLSCAASGFNFYYNAMGWYRKAPGKERELVAAISWSDGGTYYADSVKGRFTISRDNAKNTVYLQMNSLKPEDTAFYYCAADFRLRAYYPGYEYWGQGTQVTVSS”, the “polyreactivity (PSR sort gate)” value was “low polyreactivity”.
With “QVQLEESGGGLVQAGGSLRLSCAASGFTFDGYAMGWYRPAPGKERELVAAITSSGGSTYYADSVKGRFTISRDNTKNTVYLQMNSLKPEDTAVYYCNAVYYYGYYYYWTEFNYWGQGTQVTVSS” the “polyreactivity (PSR sort gate)” value was “high polyreactivity”.
For “QVQLVESGGGLVQAGGSLRLSCAASGYIILGYAMGWYRQAPGKERELVAVINWSGGRTRYADSVKGRFTISRDNAKNTVYLQMNSLKPEDTAVYYCAAERSITYDYWGQGTQVTVSS”, the “polyreactivity (PSR sort gate)” value was “high polyreactivity”.
In the case of “QVQLVESAGGLVQAGGSLRLSCAASGRTFVGNAMGWYRQAPGTERELVADITWSGDITYYADSVKGRFTISRDNAKNTVYLQMNSLKPDDTAVYYCAADYHRRRTDYDYWGQGTQVTESS”, the “polyreactivity (PSR sort gate)” value is reported as “low polyreactivity”.
In the case of “QVQLVESGGGLVQAGGSLRLSCAASGNTLQVYAMGGYRPAPGKERELVARLTGGGRTSYADSVKGRFTISRDNAKTTVYLQMHSLKPEDTAVYYCATVYYGHIVLYDYWGQGTQVTVSA”, the “polyreactivity (PSR sort gate)” value is reported as “low polyreactivity”.
For “QVQLVESGGCLVQAGGSLRLSCAASGSIFVWNVMGWYRKAPGKERELVAAISWRGGTTYYADSVKGRFTISRDNAKNTVYLQMNSLKPEDTAVYYCAKQKHWSVHGGYNYWGQGTQVTVSS”, the “polyreactivity (PSR sort gate)” value was “high polyreactivity”.
With “QVQLVESGGGLVQAGGSLRLSCAASGYNFLRNAMGWYRQAPGKERELVAAISYSGGGTYYADSVKGRFTISRDNAKNTVYLQMNSLKPEDTAVYYCNVAQRYYGNFWSESIEYDYWGLGTQVTVSS” the “polyreactivity (PSR sort gate)” value was “low polyreactivity”.
In the case of “QVQLVESGGGLVQAGGSLRLSCAASGFTCAWYTMGWYREAPGKERELVAAISLNGGSTYYADSVKGRFTISRDNAKNTVYLQMNRLKPEDTAVYYCAKGYRWPYYPYDYWGQGTQVTVSS”, the “polyreactivity (PSR sort gate)” value is reported as “low polyreactivity”.
For “QVQLVESGGGLVQAGGSLRLSCAASGRTFGNYAMGWYRQAPGTERELVASITYTVGNTYYADSVKGRFTISRDNAKNTVYIQMNSLKPEDTAVYYCAADGFYLQFYHYDYWGQGTQVTVSS”, the “polyreactivity (PSR sort gate)” value was “low polyreactivity”.
With “QVQLVESGGGLVQAGGSLRLSCAASGSMFANNAMGWYRQAPGKERELVAAITSGGNTDNADSVKGRFTISRDNAKYTVYLQMNSLKPEDTAVYYCAAERPPYGYLVVGYVSTQYYYWGQGTQVTVSS” the “polyreactivity (PSR sort gate)” value was “low polyreactivity”.
For “QVQLVESGGGLVQAGGSLRLSCDASGRIFLHYAMRLYRQAPGTERELVAAISRSGGSTYYADSVKGRFTISRDNAKNTVYLQMNSLKPEDTAVYYCAADGPGDYLTLEWYWFTYYYWGQGTQVTVSS”, the “polyreactivity (PSR sort gate)” value was “high polyreactivity”.
For “QVQLEESGGGLVQAGGSLRLSWAASGSTFQSYAMGWYRQAPGKERELVAVIDSGGRTYYADSVKGRFTISRDNAKNTVYLQMNSLKPEDTAVYYCATVPGYSLYDLIVYWGQGTQVTVSS”, the “polyreactivity (PSR sort gate)” value was “high polyreactivity”.
In the case of “QVQLVESGGGLVHAGGSLRLSCAASGFILTGYTMGWYRQAPGKEMELVAAISYRGGSTYYADSVKGRFTISRDNAKNTVYLQMNSLKPEDTAVYYCNAVWSNFRLGYDYWGQGTQVTVSS”, the “polyreactivity (PSR sort gate)” value is reported as “high polyreactivity”.
In the case of “QVQLVESGGGLVQAGGSHRLSCAASGNAMGCYRQAPGKERELVAAITYGGTTTYYADSVKGRFTISRDNAKNTVYLQMNSLKPEDTAVYYCAADYVFVATPLRYDYWGQGTQVTVSS”, the “polyreactivity (PSR sort gate)” value is reported as “low polyreactivity”.
For “QVQLVESGGGLVQAGGSLRLSCAASGFIFLYYAMGWYRQAPGKERELVAVITRGGRTYYADSVKGRFTISRDNAKNTVYLQMNSLKPEDTAVYYCAAKAYSYFARIGFDYWGQGTQVTVSS”, the “polyreactivity (PSR sort gate)” value was “high polyreactivity”.
With “QVQLVESGGGLVQAGGSLRLSCAASGGTFRGYAMGWYRQATGKERELVAAITYSGGRTYYADSVKGRFTISRDNAKNTVYLQMNSLKPEDTAVYYCNAQSSGRLSYRYDYWGQGTQVTVSS” the “polyreactivity (PSR sort gate)” value was “high polyreactivity”.
For “QVQHVESGGGLVQAGGSLRLICAASGSTFGNYAMGWYRQAPGKERELVAAISTSGGSTYYADSVKGRFTISRDNAKNTVYLQMNSLKPEDTAVYYCANRLVRGRSRAVSDYYWGQGTQVTVSS”, the “polyreactivity (PSR sort gate)” value was “high polyreactivity”.
With “QVQLVESGGGLVQAGGSLRLSCAAYGRIFSTYAMGWYRQAPGKERELVAAINSIGGRTYYADSVKGRFTISRDNAKNTVYLQMNSLKPEDTAVYYCAAGYRTRRGLGYYYWGQGTQVTVSS” the “polyreactivity (PSR sort gate)” value was “high polyreactivity”.
For “QVQLVESGVGLVQARGSLRLSCAASGVISSINAVGWNRLAAAKEWELVAGIRARGTSPYYADSVKGRFTISRDNAKNTVYLQMNCLKPEDTAVYDCAADVDAGRHYGYWGQGTQVTVSS”, the “polyreactivity (PSR sort gate)” value was “low polyreactivity”.
In the case of “QVQLVESGGGLVQAGGSLRLSCAASGITFYVYAMGWYRQAPGKERELVASITSGGGSTDYADSVKGRFTISRDNAKNTVYLQMNSLKPEDTAVYYCAARYPLLNQLYDFDYWGQGTQVTVSS”, the “polyreactivity (PSR sort gate)” value is reported as “low polyreactivity”.
In the case of “QVQLVESGGGLVQAGGSLRLSCAASGITFSFYVMGWDRQAPRKERELVAAISRGGSTYYADSVKGRFTISRDNAKNTVYLQMNSLKPEDTAVYYCAAVRLSRVYYWGQGTQVTVSA”, the “polyreactivity (PSR sort gate)” value is reported as “high polyreactivity”.
For “QVQLVESGGGLVQAGGSLRLRCAASGRTFDTYAMGWYRQAPWKERELVASITYRGGSTYYADSVKGRFTISRDNGKNTVYLQLNSLKPVDTAVYYCNAKVKRNKRWRGYWGQGTQVTVSS”, the “polyreactivity (PSR sort gate)” value was “high polyreactivity”.
For “QVQLVESGGGLVQAGRSLRLSCAASGSILGYYAMGWYRQAPGKERELVAITSGDSTYYADSVNGRFTISRDNAKNTVYLQMNSLKPEDTAVYYCAAEGQNEGYDYWGQGTKVTVSS”, the “polyreactivity (PSR sort gate)” value was “high polyreactivity”.
In the case of “QVQHVESGGGLVQAGGSLRLSCAASGNIFYTNAMGWYRQATGKERELVAAISGSGGRTYYADSVKGRFTISRDNAKNTVYLQMNSLKPEDTAVYYCNAVRRDYYDRTYGYWGQGTQVTVSS”, the “polyreactivity (PSR sort gate)” value is reported as “low polyreactivity”.
For “QVQLVESGGGLVQAGGSLRISCAASGSTFYVNAMGWYRQAPGKERELVAAIDGGDTYYADSVKGRFTISRDNAKNTVYLQMNSLKPEDTAVYYCAAESLPEISVGLGYWGQGTQVTVSS”, the “polyreactivity (PSR sort gate)” value was “low polyreactivity”.
For “QVQLVESGGGLVQAGGSLRLSCAASGSTFRRNAMGWYRQAPGKERELVAAIRYSGSSTYYADSVKGRFTISRGNAKNTVYLQMNSLKPEDTAVYYCATVRNNRYKYDYWGQGTQVTVSS”, the “polyreactivity (PSR sort gate)” value was “high polyreactivity”.
In the case of “QVQLVESGGGLVQAGGSLRLSCAASGRTFRENAMGWYRQAPGKERELVAAAISSGDGTNYADSVKGRFTISRDNAKNTVYLQMNSLKPEDTAVYYCAADGPRDSYDYWGQGTQVTVSS”, the “polyreactivity (PSR sort gate)” value is reported as “low polyreactivity”.
For “QVQLVESGGGLVQAGGSLRLSCAASGSIFDDNAMGWYRQAPGKERELVAAITSTDSTNYADSVKGRFTISRDNAKNPVYLQMNSLKPEDTAVYYCNAESLGWYRLYTVDYWGQGTQVTVSS”, the “polyreactivity (PSR sort gate)” value was “low polyreactivity”.
With “QVQLVESGGGLVQAGGSLRLSCGASGFIFEGYSMGRYRQAPAKERELVAANTRGDSTNYADSVKGRFTISRDNAKNTVYLLMNSLKTEDTAVYYCAKTNLIGTDFTSPVQYYYWGQGTQVTVSS” the “polyreactivity (PSR sort gate)” value was “low polyreactivity”.
In the case of “QVQLVESGGGLVQAGGSLRLSCSASGSTFESNAMGWYRQAPGKERELVASISGSGGSTFYADSVKGRFTISRDNAKNTVYLQMNSLKPEDTAVYYCAAYKEPYYEEYGYWGQGTQVTVSS”, the “polyreactivity (PSR sort gate)” value is reported as “low polyreactivity”.
For “QVQLVESGGGLVQAGGSLRLSCAASGRTFYLYAMGWYRQAPGKERELVAAITSGGSTYYADSVKGRFTISRDNAKNTVYLQMNSLKPEDTAVYYCAKRPVSVGYGYPRVSWGYDYWGQGTQVTVSS”, the “polyreactivity (PSR sort gate)” value was “high polyreactivity”.
For “QVQHVESVGCLVQAAGSLPLSCAASGSTFSSYAMGWYRQAPGKERELVAAISTSGGSTYYADSVKGRFTISRDNAKNTVYLQMNSLKQEDTAVYYCYAGPSYYPFFWPDFEYWVQGTQVTVSS”, the “polyreactivity (PSR sort gate)” value was “high polyreactivity”.
